Here are results for 27 molecules from patent US20170355771A1 (Biogen, published 2017).

Positions count from the first letter of the chain named.

The target of experiment [1] is T1, biotinylated human GPIIb/IIIa ectodomain protein (human, UniProt P08514 32-993; P05106 27-718, biotinylated (site not stated)).
T1 construct: extracellular domain; also called purified GPIIb/IIIa
Briefly: SPR, biotinylated GPIIb/IIIa ectodomain on streptavidin chip, Fab as analyte, 1:1 model.

For experiment [2], the target named is T2, GPIIb/IIIa (SEQ ID NOs: 23 and 24) (human, UniProt P08514 32-994; P05106 27-716).
T2 construct: also called GPIIb/IIIa complex
T2 sequence (P08514 32-994 limits assumed, chain 1 of 2): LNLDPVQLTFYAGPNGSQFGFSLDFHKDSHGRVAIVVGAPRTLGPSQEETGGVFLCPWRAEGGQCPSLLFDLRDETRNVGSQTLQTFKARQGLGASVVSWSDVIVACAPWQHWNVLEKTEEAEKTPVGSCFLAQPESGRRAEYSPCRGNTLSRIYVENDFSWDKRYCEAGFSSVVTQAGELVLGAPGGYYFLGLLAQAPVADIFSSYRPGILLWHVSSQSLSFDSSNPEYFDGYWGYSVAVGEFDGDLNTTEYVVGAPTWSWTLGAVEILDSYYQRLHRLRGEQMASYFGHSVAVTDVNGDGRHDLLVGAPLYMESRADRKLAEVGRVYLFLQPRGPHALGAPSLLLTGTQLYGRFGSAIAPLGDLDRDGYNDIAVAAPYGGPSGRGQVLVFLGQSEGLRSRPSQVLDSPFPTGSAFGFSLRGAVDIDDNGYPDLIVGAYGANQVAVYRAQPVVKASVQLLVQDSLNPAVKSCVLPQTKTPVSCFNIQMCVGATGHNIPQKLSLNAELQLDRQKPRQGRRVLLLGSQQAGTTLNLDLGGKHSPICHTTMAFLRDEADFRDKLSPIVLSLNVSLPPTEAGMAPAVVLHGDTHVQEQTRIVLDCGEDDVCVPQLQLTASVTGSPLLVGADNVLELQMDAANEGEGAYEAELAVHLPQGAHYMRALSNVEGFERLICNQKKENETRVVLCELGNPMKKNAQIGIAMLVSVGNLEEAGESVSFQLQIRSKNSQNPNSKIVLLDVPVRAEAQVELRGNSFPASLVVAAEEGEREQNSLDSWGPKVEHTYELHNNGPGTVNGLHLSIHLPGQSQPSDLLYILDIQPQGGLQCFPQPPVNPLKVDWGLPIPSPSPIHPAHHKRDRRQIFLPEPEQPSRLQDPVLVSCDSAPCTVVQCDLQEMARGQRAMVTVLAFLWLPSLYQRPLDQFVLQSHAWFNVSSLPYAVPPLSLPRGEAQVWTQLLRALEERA
T2 sequence (P05106 27-716 limits assumed, chain 2 of 2): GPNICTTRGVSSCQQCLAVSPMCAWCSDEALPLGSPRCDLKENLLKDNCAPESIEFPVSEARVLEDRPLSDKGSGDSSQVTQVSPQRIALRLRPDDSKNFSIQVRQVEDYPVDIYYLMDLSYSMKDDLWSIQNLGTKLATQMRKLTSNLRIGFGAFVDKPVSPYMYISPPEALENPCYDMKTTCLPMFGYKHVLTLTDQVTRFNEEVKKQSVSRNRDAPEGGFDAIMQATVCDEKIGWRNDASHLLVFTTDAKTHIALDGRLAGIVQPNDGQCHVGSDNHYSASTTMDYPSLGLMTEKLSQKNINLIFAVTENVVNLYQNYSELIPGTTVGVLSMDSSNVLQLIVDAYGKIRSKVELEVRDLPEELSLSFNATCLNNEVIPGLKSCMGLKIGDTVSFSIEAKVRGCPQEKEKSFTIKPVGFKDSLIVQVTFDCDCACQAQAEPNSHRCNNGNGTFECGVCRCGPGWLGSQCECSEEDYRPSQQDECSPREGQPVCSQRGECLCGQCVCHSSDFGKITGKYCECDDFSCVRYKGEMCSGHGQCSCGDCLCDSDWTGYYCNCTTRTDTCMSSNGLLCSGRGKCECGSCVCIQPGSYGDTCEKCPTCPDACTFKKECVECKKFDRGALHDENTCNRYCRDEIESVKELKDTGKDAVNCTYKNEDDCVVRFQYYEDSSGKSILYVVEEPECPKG
Briefly: Bio-Layer Interferometry (OctetRed), monovalent format, yeast-purified Fab; apparent monovalent affinity. In general terms: Biolayer interferometry detects binding as a change in optical thickness at a sensor tip.
Method: (§1) BLI was performed on the OctetRed94 instrument, manufactured by ForteBio, according to standard procedures.

Experiment [3] addresses T2, GPIIb/IIIa (SEQ ID NOs: 23 and 24). As to the kind of experiment: Bio-Layer Interferometry (OctetRed), monovalent format, yeast-purified Fab; apparent dissociation rate Kdis.
Method: as §1
Experiment [4] addresses T1, biotinylated human GPIIb/IIIa …. As to the kind of experiment: surface plasmon resonance, biotinylated GPIIb/IIIa ectodomain on a streptavidin chip, analyte at 6.2 to 500 nM, 1:1 binding model. Background: In SPR one partner is held on a chip, and binding of the other changes the refractive index at the surface.
From the text: (§2) The GPIIb/IIIa ectodomain protein was immobilized on an SPR chip coated with streptavidin (GE Healthcare).
The target is the same in experiment [5]. As to the kind of experiment: SPR, biotinylated GPIIb/IIIa ectodomain on streptavidin chip, fusion protein as analyte, 1:1 model.
From the text: as §2

One may read the koff as a measure of how fast the partners let go of each other. In general, kon refers to the second-order rate constant of association.

T1 sequence (P08514 32-993, chain 1 of 2): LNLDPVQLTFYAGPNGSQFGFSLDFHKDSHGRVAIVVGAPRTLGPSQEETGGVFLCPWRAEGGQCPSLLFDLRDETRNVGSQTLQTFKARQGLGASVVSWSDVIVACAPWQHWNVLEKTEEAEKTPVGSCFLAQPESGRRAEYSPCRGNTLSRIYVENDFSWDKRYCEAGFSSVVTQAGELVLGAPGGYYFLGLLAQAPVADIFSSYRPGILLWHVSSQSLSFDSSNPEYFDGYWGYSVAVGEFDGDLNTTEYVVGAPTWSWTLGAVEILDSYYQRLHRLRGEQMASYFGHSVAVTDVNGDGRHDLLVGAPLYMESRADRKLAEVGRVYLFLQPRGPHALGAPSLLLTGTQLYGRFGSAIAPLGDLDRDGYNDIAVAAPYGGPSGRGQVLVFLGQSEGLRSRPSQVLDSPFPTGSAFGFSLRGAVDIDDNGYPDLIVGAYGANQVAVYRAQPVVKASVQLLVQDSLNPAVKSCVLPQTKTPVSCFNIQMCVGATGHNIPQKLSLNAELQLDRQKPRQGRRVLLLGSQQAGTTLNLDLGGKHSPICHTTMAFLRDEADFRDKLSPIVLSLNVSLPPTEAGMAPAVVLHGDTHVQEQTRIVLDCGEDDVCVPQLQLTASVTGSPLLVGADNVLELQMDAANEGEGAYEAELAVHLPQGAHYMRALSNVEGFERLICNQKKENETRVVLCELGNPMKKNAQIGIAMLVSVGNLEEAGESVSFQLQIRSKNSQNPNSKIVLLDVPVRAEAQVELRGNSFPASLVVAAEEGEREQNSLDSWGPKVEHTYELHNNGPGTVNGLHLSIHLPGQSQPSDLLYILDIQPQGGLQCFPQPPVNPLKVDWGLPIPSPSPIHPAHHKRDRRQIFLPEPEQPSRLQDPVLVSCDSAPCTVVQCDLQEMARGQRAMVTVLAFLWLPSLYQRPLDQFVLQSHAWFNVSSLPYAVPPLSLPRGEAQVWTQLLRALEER
T1 sequence (P05106 27-718, chain 2 of 2): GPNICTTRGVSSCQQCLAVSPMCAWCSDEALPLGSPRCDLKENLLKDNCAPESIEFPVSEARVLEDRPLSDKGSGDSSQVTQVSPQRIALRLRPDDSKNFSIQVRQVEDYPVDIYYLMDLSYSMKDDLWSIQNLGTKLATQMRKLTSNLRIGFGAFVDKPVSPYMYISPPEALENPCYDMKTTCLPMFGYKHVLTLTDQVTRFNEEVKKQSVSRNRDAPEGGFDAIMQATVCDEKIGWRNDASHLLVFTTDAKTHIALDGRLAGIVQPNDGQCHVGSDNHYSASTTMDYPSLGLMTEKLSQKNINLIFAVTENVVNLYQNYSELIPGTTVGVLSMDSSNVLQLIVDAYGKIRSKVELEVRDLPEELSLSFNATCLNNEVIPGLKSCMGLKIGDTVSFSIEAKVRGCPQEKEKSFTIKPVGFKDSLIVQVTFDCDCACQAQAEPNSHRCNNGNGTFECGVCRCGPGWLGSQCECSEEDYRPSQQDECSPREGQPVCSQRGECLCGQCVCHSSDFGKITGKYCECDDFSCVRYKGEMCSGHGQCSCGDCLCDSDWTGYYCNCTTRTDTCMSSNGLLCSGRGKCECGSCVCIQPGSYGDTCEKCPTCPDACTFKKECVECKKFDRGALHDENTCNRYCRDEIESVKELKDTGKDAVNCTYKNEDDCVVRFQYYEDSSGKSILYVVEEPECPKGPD

B1: humanized 34D10 Fab L0/H2 (Fab, V domains shown)
VH: EVQLVESGGGLVKPGGSLRLSCAASGFTFSAYAMSWVRQAPGKGLVWVASISSGGTTYYPDSVKRQFTISRDNAKNTLYLQMNSLRAEDTAVYYCTRGGDYGYALDYWGQGTLVTVSS
VL: EIVMTQSPATLSVSPGERATLSCRASSSVNYMYWYQQKPGQAPRLLIYYTSNLAPGIPARFSGSGSGTEFTLTISSLQSEDFAVYYCQQFSSSPWTFGQGTKVEIK
notes: Fab; also called VL0/VH2
As to B1, the Kd in experiment [1] worked out at 2.8 nM; in experiment [2], 155 nM. The dissociation rate constant (koff) in experiment [3] turned out to be 0.0563 s⁻¹.

B2: humanized 34D10 Fab L1/H3 (Fab, V domains shown)
VH: B1 VH with E6Q, G16E, V46E, Q66R
VL: B1 VL with M4L, I57V
notes: Fab; only variable domains are tied by name; also called VL1/VH3
Molecule B2 gave a Kd in experiment [1] of 110 nM.

B3: affinity matured h34D10 Fab VH105/VL0 (Fab, V domains shown)
VH: B1 VH with G102S
VL: B1 VL
notes: Yeast-purified Fab
For the molecule B3, the Kd in experiment [2] worked out at 42 nM. The off-rate constant (koff) in experiment [3] was determined as 0.0114 s⁻¹.

B4: affinity matured h34D10 Fab VH112/VL0 (Fab, V domains shown)
VH: B1 VH with K43E, S50G
VL: B1 VL
notes: Yeast-purified Fab
As for B4, in experiment [2], the Kd came out at 160 nM. For the same molecule, in experiment [3], the off-rate (koff) worked out at 0.0352 s⁻¹.

B5: affinity matured h34D10 Fab VH118/VL0 (Fab, V domains shown)
VH: B1 VH with E1G, T112A
VL: B1 VL
notes: Yeast-purified Fab
In the case of B5, in experiment [2], the Kd amounted to 200 nM. In addition, in experiment [3], the koff stood at 0.0478 s⁻¹.

B6: affinity matured h34D10 Fab VH113/VL0 (Fab, V domains shown)
VH: B1 VH with S50G
VL: B1 VL
notes: Yeast-purified Fab
With B6, the Kd in experiment [2] was 160 nM. In experiment [3], the off-rate constant (koff) stood at 0.0372 s⁻¹.

B7: affinity matured h34D10 Fab VH119/VL0 (Fab, V domains shown)
VH: B1 VH with E1G
VL: B1 VL
notes: Yeast-purified Fab
With B7, the Kd in experiment [2] was determined as 140 nM. In addition, the koff in experiment [3] is 0.0482 s⁻¹.

B8: affinity matured h34D10 Fab VH106/VL0 (Fab, V domains shown)
VH: B1 VH with S7C, G102S
VL: B1 VL
notes: Yeast-purified Fab
Take B8: the Kd in experiment [2] was 44 nM. Besides, the koff in experiment [3] worked out at 0.0127 s⁻¹.

B9: affinity matured h34D10 Fab VH121/VL0 (Fab, V domains shown)
VH: B1 VH with K43E
VL: B1 VL
notes: Yeast-purified Fab
Consider B9, for which the Kd in experiment [2] was 230 nM. The off-rate (koff) in experiment [3] stood at 0.0494 s⁻¹.

B10: affinity matured h34D10 Fab VH120/VL0 (Fab, V domains shown)
VH: B1 VH with K13E
VL: B1 VL
notes: Yeast-purified Fab
In the case of B10, in experiment [2], the Kd stood at 240 nM. Moreover, in experiment [3], the koff turned out to be 0.0492 s⁻¹.

B11: affinity matured h34D10 Fab VH117/VL0 (Fab, V domains shown)
VH: B1 VH with V2A
VL: B1 VL
notes: Yeast-purified Fab
As for B11, the Kd in experiment [2] was found to be 160 nM. The koff in experiment [3] was 0.0435 s⁻¹.

B12: affinity matured h34D10 Fab VH103/VL0 (Fab, V domains shown)
VH: B1 VH with M82V, G102S
VL: B1 VL
notes: Yeast-purified Fab
Take B12: in experiment [2], the Kd worked out at 37 nM. Further, the koff in experiment [3] amounted to 0.0103 s⁻¹.

B13: affinity matured h34D10 Fab VH110/VL0 (Fab, V domains shown)
VH: B1 VH with S30N
VL: B1 VL
notes: Yeast-purified Fab
B13: the Kd in experiment [2] worked out at 130 nM. Also, the koff in experiment [3] came to 0.0337 s⁻¹.

B14: affinity matured h34D10 Fab VH111/VL0 (Fab, V domains shown)
VH: B1 VH with S30N, K43E
VL: B1 VL
notes: Yeast-purified Fab
Regarding B14, in experiment [2], the Kd is 150 nM. The koff in experiment [3] was determined as 0.0352 s⁻¹.

B15: affinity matured h34D10 Fab VH108/VL0 (Fab, V domains shown)
VH: B1 VH with G54D, K75R, G102S
VL: B1 VL
notes: Yeast-purified Fab
Consider B15, for which the Kd in experiment [2] stood at 49 nM. For the same molecule, the dissociation rate constant (koff) in experiment [3] worked out at 0.0193 s⁻¹.

B16: affinity matured h34D10 Fab VH116/VL0 (Fab, V domains shown)
VH: B1 VH with N73D
VL: B1 VL
notes: Yeast-purified Fab
With B16, the Kd in experiment [2] amounted to 130 nM. The koff in experiment [3] was determined as 0.0432 s⁻¹.

B17: affinity matured h34D10 Fab VH114/VL0 (Fab, V domains shown)
VH: B1 VH with V2M
VL: B1 VL
notes: Yeast-purified Fab
For the molecule B17, the Kd in experiment [2] is 130 nM. For the same molecule, the off-rate constant (koff) in experiment [3] turned out to be 0.0393 s⁻¹.

B18: affinity matured h34D10 Fab VH107/VL0 (Fab, V domains shown)
VH: B1 VH with G16E, K43E, G102S
VL: B1 VL
notes: Yeast-purified Fab
For B18, the Kd in experiment [2] stood at 48 nM. Also, in experiment [3], the dissociation rate constant (koff) amounted to 0.0142 s⁻¹.

B19: affinity matured h34D10 Fab VH109/VL0 (Fab, V domains shown)
VH: B1 VH with Y58D
VL: B1 VL
notes: Yeast-purified Fab
For B19, in experiment [2], the Kd was found to be 120 nM. Besides, in experiment [3], the dissociation rate constant (koff) was determined as 0.031 s⁻¹.

B20: affinity matured h34D10 Fab VH104/VL0 (Fab, V domains shown)
VH: B1 VH with G102S, Q110R
VL: B1 VL
notes: Yeast-purified Fab
Consider B20, for which the Kd in experiment [2] was 31 nM. Besides, the koff in experiment [3] worked out at 0.0113 s⁻¹.

B21: affinity matured h34D10 Fab VH101/VL0 (Fab, V domains shown)
VH: B1 VH with K64E, G102S
VL: B1 VL
notes: Yeast-purified Fab
As for B21, the Kd in experiment [2] was 25 nM. In experiment [3], the koff amounted to 0.00836 s⁻¹.

B22: affinity matured h34D10 Fab VH100/VL0 (Fab, V domains shown)
VH: B1 VH with S30G, G102S
VL: B1 VL
notes: Yeast-expressed, protein A purified, then made into Fab
Turning to B22, the Kd in experiment [2] is 29 nM. Further, the off-rate (koff) in experiment [3] came out at 0.00822 s⁻¹.

B23: humanized 34D10 Fab L0/H5 (Fab, V domains shown)
VH: B1 VH with Q3K, V46E, Q66R, K75R
VL: B1 VL
notes: Fab; also called VL0/VH5
Take B23: the Kd in experiment [1] amounted to 5.3 nM.

B24: affinity matured h34D10 Fab VH115/VL0 (Fab, V domains shown)
VH: B1 VH with E1G, N73D
VL: B1 VL
notes: Yeast-purified Fab
Turning to B24, the Kd in experiment [2] is 120 nM. In addition, the off-rate (koff) in experiment [3] is 0.0429 s⁻¹.

B25: affinity matured h34D10 Fab VH102/VL0 (Fab, V domains shown)
VH: B1 VH with G102S, S118F
VL: B1 VL
notes: Yeast-purified Fab
B25: in experiment [2], the Kd amounted to 36 nM. In addition, the off-rate (koff) in experiment [3] stood at 0.00977 s⁻¹.

B26: mouse Fab (34D10) (Fab, V domains shown)
VH: EVKLVESGGGLVKPGGSLKLSCAASGFTFSAYAMSWVRQTPEKRLEWVASISSGGTTYYPDSVKRRFTISRDNARNILYLQMSSLRSEDTAMYYCTRGGDYGYALDYWGQGTSVTVSS
VL: ENVLTQSPAIMSASLGEKVTMSCRASSSVNYMYWYQQKSDASPKLWIYYTSNLAPGVPARFSGSGSGNSYSLTISSMEGEDAATYYCQQFSSSPWTFGGGTKLEIK
notes: Fab; also called mouse 34D10 Fab
In experiment [1], B26 came in with a Kd of 2.8 nM.

B27: FVII-250/Fab-062 (other)
chain: ANAFLEELRPGSLERECKEEQCSFEEAREIFKDAERTKLFWISYSDGDQCASSPCQNGGSCKDQLQSYICFCLPAFEGRNCETHKDDQLICVNENGGCEQYCSDHTGTKRSCRCHEGYSLLADGVSCTPTVEYPCGKIPILEKRNASKPQGRIVGGKVCPKGECPWQVLLLVNGAQLCGGTLINTIWVVSAAHCFDKIKNWRNLIAVLGEHDLSEHDGDEQSRRVAQVIIPSTYVPGTTNHDIALLRLHQPVVLTDHVVPLCLPERTFSERTLAFVRFSLVSGWGQLLDRGATALELMVLNVPRLMTQDCLQQSRKVGDSPNITEYMFCAGYSDGSKDSCKGDSGGPHATHYRGTWYLTGIVSWGQGCATVGHFGVYTRVSQYIEWLQKLMRSEPRPGVLLRAPFPGGGGSGGGGSGGGGSGGGGSGGGGSGGGGSEIVMTQSPATLSVSPGERATLSCRASSSVNYMYWYQQKPGQAPRLLIYYTSNLAPGIPARFSGSGSGTEFTLTISSLQSEDFAVYYCQQFSSSPWTFGQGTKVEIKRTVAAPSVFIFPPSDEQLKSGTASVVCLLNNFYPREAKVQWKVDNALQSGNSQESVTEQDSKDSTYSLSSTLTLSKADYEKHKVYACEVTHQGLSSPVTKSFNRGEC
heavy: EGTSESATPESGPGSEPATSGSETPGTSESATPESGPGSEPATSGSETPGTSESATPESGPGTSTEPSEGSAPGSPAGSPTSTEEGTSESATPESGPGSEPATSGSETPGTSESATPESGPGSPAGSPTSTEEGSPAGSPTSTEEGTSTEPSEGSAPGTSESATPESGPGTSESATPESGPGTSESATPESGPGSEPATSGSETPGSEPATSGSETPGSPAGSPTSTEEGTSTEPSEGSAPGTSTEPSEGSAPGSEPATSGSETPGTSESATPESGPGTSTEPSEGSAPEVQLVESGGGLVKPGGSLRLSCAASGFTFSAYAMSWVRQAPGKGLVWVASISSGGTTYYPDSVKRQFTISRDNAKNTLYLQMNSLRAEDTAVYYCTRGGDYGYALDYWGQGTLVTVSSASTKGPSVFPLAPSSKSTSGGTAALGCLVKDYFPEPVTVSWNSGALTSGVHTFPAVLQSSGLYSLSSVVTVPSSSLGTQTYICNVNHKPSNTKVDKKVEPKSC
notes: also called Fab-250/Fab-062 (as printed once)
Consider B27, for which, in experiment [4], the koff is 0.0174 s⁻¹ and the kon was determined as 23700 M⁻¹ s⁻¹. The molecule further showed a Kd in experiment [5] of 730 nM.
